Test [1] concerns the target Max-E47 protein chimera (UniProt P61244). As to the kind of experiment: SEC; Superdex-75 column, against molecular weight markers.
Test [2] has the same target. As to the kind of experiment: AUC; sedimentation equilibrium, 16.0°C, 14,000-35,000 rpm, Rayleigh interference; 20 mM Tris pH 8.0, 0.15 M NaCl, 10 mM 2-mercaptoethanol; loading concentrations 5-25; the constant is of dimer to monomers.
For test [3] the target is unchanged. The test can be described thus: AUC; sedimentation velocity, 20.0°C, 50,000 rpm, Rayleigh interference; loading concentrations 3-130 µM; 20 mM Tris pH 8.0, 0.1 M NaCl, 10 mM 2-mercaptoethanol, 5% (v/v) glycerol.
The target in test [4] is Max-E47YF cloning variant (Max-E47-V51Y/V59F) (UniProt P61244). As to the kind of experiment: AUC; sedimentation equilibrium, 16.0°C, 14,000-35,000 rpm, Rayleigh interference; 20 mM Tris pH 8.0, 0.15 M NaCl, 10 mM 2-mercaptoethanol; loading concentrations 5-25; the constant is of dimer to monomers.

Results on two substances are retold here after publication PMC3289634.

Where “and” joins values, the source holds several entries; their conditions need not be identical. Equal values may be shown once. Where only a bound is given, the exact number is not on record here.

For “Max-E47 protein chimera (from UniProt P61244 22-36; P15923-2 349-400) (designed binder)”, the stoichiometry N (commonly the number of molecules, sites or subunits per partner or assembly) with Max-E47 protein chimera [1] is 2; with Max-E47 protein chimera [2], 2 and 4; with Max-E47 protein chimera [3] it was 2 and 4.

Consider “Max-E47YF cloning variant (Max-E47-V51Y/V59F) (from UniProt P61244 22-36) (designed binder)”, for which, in test [4], the Kd – broadly, the free concentration of one partner at which half of the binding sites on the other are occupied at equilibrium, for simple one-to-one binding – is less than 1 nM and the stoichiometry N is 2.
